Results on 14 molecules are retold here after patent EP4772193A1 (Teijin Pharma Limited, dated 2026).

Assay [1] addresses T1, recombinant mouse soluble gpNMB (recombinant mouse gpNMB-FLAG-His) (mouse, UniProt Q99P91 23-502).
T1 sequence: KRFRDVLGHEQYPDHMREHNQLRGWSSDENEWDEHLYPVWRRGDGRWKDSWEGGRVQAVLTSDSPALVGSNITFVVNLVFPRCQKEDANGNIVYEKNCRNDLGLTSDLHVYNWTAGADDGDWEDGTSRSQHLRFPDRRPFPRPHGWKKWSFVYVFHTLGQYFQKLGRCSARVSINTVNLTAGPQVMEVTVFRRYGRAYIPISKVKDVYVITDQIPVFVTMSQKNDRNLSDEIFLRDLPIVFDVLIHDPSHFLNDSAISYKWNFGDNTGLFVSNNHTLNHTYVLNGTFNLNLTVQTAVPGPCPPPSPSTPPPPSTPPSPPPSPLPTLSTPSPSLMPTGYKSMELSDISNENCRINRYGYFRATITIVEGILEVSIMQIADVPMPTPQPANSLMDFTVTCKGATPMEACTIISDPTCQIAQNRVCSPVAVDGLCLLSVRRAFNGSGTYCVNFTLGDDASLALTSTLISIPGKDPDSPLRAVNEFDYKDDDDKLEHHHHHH
Briefly: SPR, antibody 100 nM over captured gpNMB-FLAG-His, 25C. (In SPR one partner is held on a chip, and binding of the other changes the refractive index at the surface.)

The target of assay [2] is T2, recombinant human soluble gpNMB (recombinant human gpNMB-FLAG-His) (human, UniProt Q14956 23-498).
T2 sequence: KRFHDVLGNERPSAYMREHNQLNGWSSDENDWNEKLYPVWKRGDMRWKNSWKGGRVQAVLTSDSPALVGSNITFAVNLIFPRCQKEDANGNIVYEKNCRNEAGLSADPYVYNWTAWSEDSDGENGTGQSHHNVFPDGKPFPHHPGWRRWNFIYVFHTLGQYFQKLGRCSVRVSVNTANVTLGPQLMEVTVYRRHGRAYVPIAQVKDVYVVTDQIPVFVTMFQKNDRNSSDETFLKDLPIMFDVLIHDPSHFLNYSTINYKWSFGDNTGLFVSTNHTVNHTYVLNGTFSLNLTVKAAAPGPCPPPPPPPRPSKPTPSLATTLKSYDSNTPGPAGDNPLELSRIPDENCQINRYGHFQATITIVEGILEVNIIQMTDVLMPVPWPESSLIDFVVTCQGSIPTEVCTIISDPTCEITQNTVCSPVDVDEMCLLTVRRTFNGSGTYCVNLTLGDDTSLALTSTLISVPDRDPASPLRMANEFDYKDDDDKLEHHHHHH
The description is as above.

Assay [3] has as its target T2, recombinant human soluble gpNMB …. In words: antigen ELISA, vs hGPN18-2_H2L3.
Assay [4] shares this target. In words: antigen ELISA. A general note: An ELISA detects its analyte on a solid surface through an enzyme-linked reagent.

B1: GPN15-3 (antibody, V domains shown)
VH: QVTLKESGPGILQPSQTLSLTCSFSGFSLTTSGMGVGWIRQPSGKGLEWLADMWWDDDKNYNPSLKSRLTISKDNSKKQVFLKIASVDTADTATYYCARRVYSSWFAYWGQGTLVTVSA
VL: DIVMTQSQKFMSTSVGDRVSVTCKASQNVGANVAWYQQKPGQSPKTLIYSASYRYGGVPDRFTGSGSGTDFTFTITNVQSEDLAEYFCQQYNNYPLTFGAGTKLDLK
notes: monoclonal with mouse IgG constant regions
With B1, in assay [1], the dissociation constant Kd was 2.9 nM, the koff was 0.00036 s⁻¹ and the kon amounted to 130000 M⁻¹ s⁻¹. Besides, in assay [2], the dissociation constant Kd amounted to 2.9 nM, the dissociation rate constant (koff) amounted to 0.00037 s⁻¹ and the kon was found to be 130000 M⁻¹ s⁻¹.

B2: GPN18-1 (antibody, V domains shown)
VH: QVTLKESGPGILQPSQTLSLTCSFSGFSLSTSVMGVGWIRQPSGKGLEWLADIWWDDDKDYNPSLKSRLTISKDTSKNQVFLKIASVDTADTATYYCARAYYSNYEYYGMDYWGQGTSVTVSS
VL: DVLMTQTPLSLPVSLGDQASISCRSSQSIVHSNGNTYLEWYLQKPGQSPKLLIYKVSNRFSGVPDRFSGSGSGTDFTLKISRVEAEDLGVYYCFQGSHVPFTFGSGTKLEIK
notes: as for B1
B2: in assay [1], the dissociation constant Kd was 24 nM, the koff was 0.00091 s⁻¹ and the on-rate (kon) was found to be 38000 M⁻¹ s⁻¹. Also, in assay [2], the dissociation constant Kd was 14 nM, the koff was determined as 0.00054 s⁻¹ and the kon was 38000 M⁻¹ s⁻¹.

B3: GPN18-2 (antibody, V domains shown)
VH: QVTLKESGPGILQPSQTLSLTCSFSGFSLSTSVMGVGWIRQPSGKGLEWLADIWWDDDKDYNPSLKSRLTISKDTSKNQVFLKIASVDTADTATYYCARTYYSNYEYYGMDYWGQGTSVTVSS
VL: DVLMTQTPLSLPVSLGDQASISCRSSQTIILSNGNTYLEWYLQKPGQSPKLLIYKVSNRFSGVPDRFSGSGSGTDFTLKISRVEAEDLGVYYCFQGSHVPFTFGSGTKLEIK
notes: as for B1
As to B3, in assay [1], the Kd worked out at 3.3 nM, the off-rate (koff) came out at 7.9e-05 s⁻¹ and the kon amounted to 24000 M⁻¹ s⁻¹. Moreover, in assay [2], the Kd is 2.2 nM, the koff was 6.8e-05 s⁻¹ and the on-rate (kon) came out at 31000 M⁻¹ s⁻¹.

B4: GPN18-7 (antibody, V domains shown)
VH: QVTLKESGPGILQPSQTLSLTCSFSGFSLSTSVMGVGWIRQPSGKGLEWLADIWWDDDKDYNPSLKSRLTISKDTSKNQVFLKIASVDTADTATYYCARAYYSNFEYYGMDYWGQGTSVTVSS
VL: DVLMTQIPLSLPVSLGDQASISCRSSQTIVHSNGNTYLEWYLQKPGQSPKLLIYKVSNRFSGVPDRFSGSGSGTDFTLKISRVEAEDLGVYYCFQGSHVPFTFGSGTKLEIK
notes: as for B1
As for B4, in assay [1], the Kd came out at 49 nM, the koff came to 0.00099 s⁻¹ and the kon is 20000 M⁻¹ s⁻¹. In assay [2], the Kd was 23 nM, the koff was 0.00059 s⁻¹ and the on-rate constant (kon) stood at 26000 M⁻¹ s⁻¹.

B5: GPN18-6 (antibody, V domains shown)
VH: EVQLQQSGPELVMPGSSVKISCKASGYTFTDYYMNWVRQSHGKSLEWIGDINPINGDITYNQKFKGKATLTVDKSSSTDYMELRGLTSEDSAVYYCAREAFFGYKGNYFDYWGQGTTLTVSS
VL: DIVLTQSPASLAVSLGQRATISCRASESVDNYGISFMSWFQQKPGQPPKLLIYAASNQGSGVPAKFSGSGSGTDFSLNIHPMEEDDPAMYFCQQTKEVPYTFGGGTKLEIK
notes: as for B1
Turning to B5, in assay [1], the Kd came to 31 nM, the dissociation rate constant (koff) came to 0.00098 s⁻¹ and the association rate constant (kon) was 32000 M⁻¹ s⁻¹. In addition, in assay [2], the Kd came to 24 nM, the off-rate constant (koff) turned out to be 0.00065 s⁻¹ and the association rate constant (kon) was 27000 M⁻¹ s⁻¹.

B6: GPN18-4 (antibody, V domains shown)
VH: QVQLQQSGAELTKPGTSVKMSCKASGYTLSSYWMNWIKQRPGQGLEWIGTINPSNNYTAYNLKFKDKAMLTADKSSSTAYMQLSSLTSEDSAVYYCATWGYWGQGTTLTVSS
VL: DIVMTQSHKFMSTSVGDRVSITCKASQDVSTAVAWHQQKPGQPPKLLIYSASYRYTGVPDRFTGSGSGTDFTFTISSVQTEDLAIYYCQHHYTTTWTFGGGTKLEIR
notes: as for B1
Turning to B6, in assay [1], the Kd was 3.8 nM, the koff is 0.00012 s⁻¹ and the kon amounted to 30000 M⁻¹ s⁻¹. In assay [2], the dissociation constant (Kd) is 0.32 nM, the dissociation rate constant (koff) is 1.5e-05 s⁻¹ and the association rate constant (kon) came to 47000 M⁻¹ s⁻¹.

B7: hGPN18-2_H2L3 VL E39A (antibody, V domains shown)
VH: QVQLVQSGPGLVQPTQTLTLTCSFSGFSLSTSVMGVGWIRQPSGKGLEWLADIWWDDDKDYNPSLKSRLTISKDTSKNQVVLTMTNMDTVDTATYYCARTYYSNYEYYGMDYWGQGTLVTVSS
VL: DIVMTQSPDSLAVSLGERATINCRSSQTIILSNGNTYLAWYQQKPGQPPKLLIYKVSNRFSGVPDRFSGSGSGTDFTLTISSLQAEDVAVYYCFQGSHVPFTFGSGTKLEIKR
On to B7, for which the Relative binding activity in assay [3] was determined as 0.1. The EC50 in assay [4] was 84.8 nM.

B8: hGPN18-2_H2L3 VL F94A (antibody, V domains shown)
VH: QVQLVQSGPGLVQPTQTLTLTCSFSGFSLSTSVMGVGWIRQPSGKGLEWLADIWWDDDKDYNPSLKSRLTISKDTSKNQVVLTMTNMDTVDTATYYCARTYYSNYEYYGMDYWGQGTLVTVSS
VL: DIVMTQSPDSLAVSLGERATINCRSSQTIILSNGNTYLEWYQQKPGQPPKLLIYKVSNRFSGVPDRFSGSGSGTDFTLTISSLQAEDVAVYYCAQGSHVPFTFGSGTKLEIKR
Consider B8, for which the Relative binding activity in assay [3] stood at 0.07. Also, the 50% effective concentration (EC50) in assay [4] was 18 nM.

B9: hGPN18-2_H2L3 VL G34A (antibody, V domains shown)
VH: QVQLVQSGPGLVQPTQTLTLTCSFSGFSLSTSVMGVGWIRQPSGKGLEWLADIWWDDDKDYNPSLKSRLTISKDTSKNQVVLTMTNMDTVDTATYYCARTYYSNYEYYGMDYWGQGTLVTVSS
VL: DIVMTQSPDSLAVSLGERATINCRSSQTIILSNANTYLEWYQQKPGQPPKLLIYKVSNRFSGVPDRFSGSGSGTDFTLTISSLQAEDVAVYYCFQGSHVPFTFGSGTKLEIKR
As to B9, the Relative binding activity in assay [3] was determined as 1. Besides, the concentration giving a half-maximal response (EC50) in assay [4] stood at 3.94 nM.

B10: hGPN18-2_H2L3 VL G96A (antibody, V domains shown)
VH: QVQLVQSGPGLVQPTQTLTLTCSFSGFSLSTSVMGVGWIRQPSGKGLEWLADIWWDDDKDYNPSLKSRLTISKDTSKNQVVLTMTNMDTVDTATYYCARTYYSNYEYYGMDYWGQGTLVTVSS
VL: DIVMTQSPDSLAVSLGERATINCRSSQTIILSNGNTYLEWYQQKPGQPPKLLIYKVSNRFSGVPDRFSGSGSGTDFTLTISSLQAEDVAVYYCFQASHVPFTFGSGTKLEIKR
With B10, the Relative binding activity in assay [3] stood at 0.91. For the same molecule, the half-maximal effective concentration (EC50) in assay [4] worked out at 10.8 nM.

B11: hGPN18-2_H2L3 VL F60A (antibody, V domains shown)
VH: QVQLVQSGPGLVQPTQTLTLTCSFSGFSLSTSVMGVGWIRQPSGKGLEWLADIWWDDDKDYNPSLKSRLTISKDTSKNQVVLTMTNMDTVDTATYYCARTYYSNYEYYGMDYWGQGTLVTVSS
VL: DIVMTQSPDSLAVSLGERATINCRSSQTIILSNGNTYLEWYQQKPGQPPKLLIYKVSNRASGVPDRFSGSGSGTDFTLTISSLQAEDVAVYYCFQGSHVPFTFGSGTKLEIKR
In the case of B11, the Relative binding activity in assay [3] was found to be 1.12. Moreover, the concentration giving a half-maximal response (EC50) in assay [4] was 2.28 nM.

B12: hGPN18-2_H2L3 VL H98A (antibody, V domains shown)
VH: QVQLVQSGPGLVQPTQTLTLTCSFSGFSLSTSVMGVGWIRQPSGKGLEWLADIWWDDDKDYNPSLKSRLTISKDTSKNQVVLTMTNMDTVDTATYYCARTYYSNYEYYGMDYWGQGTLVTVSS
VL: DIVMTQSPDSLAVSLGERATINCRSSQTIILSNGNTYLEWYQQKPGQPPKLLIYKVSNRFSGVPDRFSGSGSGTDFTLTISSLQAEDVAVYYCFQGSAVPFTFGSGTKLEIKR
Regarding B12, the Relative binding activity in assay [3] stood at 0.8. In assay [4], the EC50 was 5.69 nM.

B13: hGPN18-2_H2L3 VL F101A (antibody, V domains shown)
VH: QVQLVQSGPGLVQPTQTLTLTCSFSGFSLSTSVMGVGWIRQPSGKGLEWLADIWWDDDKDYNPSLKSRLTISKDTSKNQVVLTMTNMDTVDTATYYCARTYYSNYEYYGMDYWGQGTLVTVSS
VL: DIVMTQSPDSLAVSLGERATINCRSSQTIILSNGNTYLEWYQQKPGQPPKLLIYKVSNRFSGVPDRFSGSGSGTDFTLTISSLQAEDVAVYYCFQGSHVPATFGSGTKLEIKR
As for B13, the Relative binding activity in assay [3] was found to be 0.69. Moreover, in assay [4], the concentration for a half-maximal effect (EC50) is 7.66 nM.

B14: GPN18-5 (antibody, V domains shown)
VH: QVQLQQSGAELAKPGTSVKMSCKASGYTFTTYWMNWVKQRPGQDLEWIGAINPSNDYTEYNQKFKDKAILTADKSSNTAYMQLSSLTSEDSAVYYCGRSYSPDYWGQGTTLTVSS
VL: DIVMTQSQKFMSTSVGDRVSVTCKASQNVDNHVAWHQQKPGQSPKALIYSASYRYSGVPDRFTGSGSGTDFTLTIRDVQSEDLADYFCQQYKSYPFTFGSGTELEIK
notes: as for B1
For the molecule B14, in assay [1], the Kd was determined as 7.7 nM, the dissociation rate constant (koff) turned out to be 0.0007 s⁻¹ and the kon is 91000 M⁻¹ s⁻¹. Besides, in assay [2], the Kd was 2 nM, the off-rate constant (koff) was determined as 0.0003 s⁻¹ and the kon is 150000 M⁻¹ s⁻¹.

Usually Kd stands for a measure of binding affinity in units of concentration. As a reminder, the koff is the rate constant with which the complex falls apart. A word on the kon: it is the rate constant with which the complex forms. For orientation: EC50 means the concentration giving half of the maximal effect.
